Laboratory results taken from IntAct's records for PubMed 16803958.

B1: Protein CBFA2T1 (Homo sapiens), Q06455-4 (parent)
chain: MPDSPVDVKTQSRLTPPTMPPPPTTQGAPRTSSFTPTTLTNGTSHSPTALNGAPSPPNGFSNGPSSSSSSSLANQQLPPACGARQLSKLKRFLTTLQQFGNDISPEIGERVRTLVLGLVNSTLTIEEFHSKLQEATNFPLRPFVIPFLKANLPLLQRELLHCARLAKQNPAQYLAQHEQLLLDASTTSPVDSSELLLDVNENGKRRTPDRTKENGFDREPLHSEHPSKRPCTISPGQRYSPNNGLSYQPNGLPHPTPPPPQHYRLDDMAIAHHYRDSYRHPSHRDLRDRNRPMGLHGTRQEEMIDHRLTDREWAEEWKHLDHLLNCIMDMVEKTRRSLTVLRRCQEADREELNYWIRRYSDAEDLKKGGGSSSSHSRQQSPVNPDPVALDAHREFLHRPASGYVPEEIWKKAEEAVNEVKRQAMTELQKAVSEAERKAHDMITTERAKMERTVAEAKRQAAEDALAVINQQEDSSESCWNCGRKASETCSGCNTARYCGSFCQHKDWEKHHHICGQTLQAQQQGDTPAVSSSVTPNSGAGSPMDTPPAATPRSTTPGTPSTIETTPR

Variants of: B1
Conditions: with TCF12, Q99081-3
Sequence of TCF12, Q99081-3 (Q99081 other isoform, or with tags, fused parts or gaps): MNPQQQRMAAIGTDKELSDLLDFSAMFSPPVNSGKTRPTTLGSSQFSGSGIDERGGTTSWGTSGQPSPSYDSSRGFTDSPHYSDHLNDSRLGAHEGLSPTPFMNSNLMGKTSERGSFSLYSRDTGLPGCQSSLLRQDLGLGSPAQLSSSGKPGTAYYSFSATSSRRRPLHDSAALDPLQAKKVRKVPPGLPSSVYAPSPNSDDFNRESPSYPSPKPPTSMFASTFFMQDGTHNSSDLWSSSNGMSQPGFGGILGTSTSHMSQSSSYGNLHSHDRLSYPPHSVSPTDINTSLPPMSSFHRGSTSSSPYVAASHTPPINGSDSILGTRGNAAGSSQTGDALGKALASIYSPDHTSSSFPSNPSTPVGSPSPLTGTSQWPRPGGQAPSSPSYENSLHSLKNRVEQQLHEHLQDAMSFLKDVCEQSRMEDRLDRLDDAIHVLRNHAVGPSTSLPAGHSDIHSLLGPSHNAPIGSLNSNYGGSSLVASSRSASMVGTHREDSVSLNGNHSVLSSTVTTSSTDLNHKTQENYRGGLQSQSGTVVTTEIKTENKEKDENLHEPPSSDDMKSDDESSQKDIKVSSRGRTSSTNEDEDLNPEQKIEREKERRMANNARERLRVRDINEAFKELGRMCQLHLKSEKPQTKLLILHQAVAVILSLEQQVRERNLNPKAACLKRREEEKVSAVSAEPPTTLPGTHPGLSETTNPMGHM

Effect of a mutation on the interaction, disrupting interaction strength:
MPDSPVDVKTQSRLTPPTMPPPPTTQGAPRTSSFTPTTLTNGTSHSPTALNGAPSPPNGFSNGPSSSSSSSLANQQLPPACGARQLSKLKRFLTTLQQFGNDISPEIGERVRTLVLGLVNSTLTIEEFHSKLQEATNFPLRPFVIPALKANLPLLQRELLHCARLAKQNPAQYLAQHEQLLLDASTTSPVDSSELLLDVNENGKRRTPDRTKENGFDREPLHSEHPSKRPCTISPGQRYSPNNGLSYQPNGLPHPTPPPPQHYRLDDMAIAHHYRDSYRHPSHRDLRDRNRPMGLHGTRQEEMIDHRLTDREWAEEWKHLDHLLNCIMDMVEKTRRSLTVLRRCQEADREELNYWIRRYSDAEDLKKGGGSSSSHSRQQSPVNPDPVALDAHREFLHRPASGYVPEEIWKKAEEAVNEVKRQAMTELQKAVSEAERKAHDMITTERAKMERTVAEAKRQAAEDALAVINQQEDSSESCWNCGRKASETCSGCNTARYCGSFCQHKDWEKHHHICGQTLQAQQQGDTPAVSSSVTPNSGAGSPMDTPPAATPRSTTPGTPSTIETTPR [F147A]
MPDSPVDVKTQSRLTPPTMPPPPTTQGAPRTSSFTPTTLTNGTSHSPTALNGAPSPPNGFSNGPSSSSSSSLANQQLPPACGARQLSDLKRFLTTLQQFGNDISPEIGERVRTLVLGLVNSTLTIEEFHSKLQEATNFPLRPFVIPFLKANLPLLQRELLHCARLAKQNPAQYLAQHEQLLLDASTTSPVDSSELLLDVNENGKRRTPDRTKENGFDREPLHSEHPSKRPCTISPGQRYSPNNGLSYQPNGLPHPTPPPPQHYRLDDMAIAHHYRDSYRHPSHRDLRDRNRPMGLHGTRQEEMIDHRLTDREWAEEWKHLDHLLNCIMDMVEKTRRSLTVLRRCQEADREELNYWIRRYSDAEDLKKGGGSSSSHSRQQSPVNPDPVALDAHREFLHRPASGYVPEEIWKKAEEAVNEVKRQAMTELQKAVSEAERKAHDMITTERAKMERTVAEAKRQAAEDALAVINQQEDSSESCWNCGRKASETCSGCNTARYCGSFCQHKDWEKHHHICGQTLQAQQQGDTPAVSSSVTPNSGAGSPMDTPPAATPRSTTPGTPSTIETTPR [K88D]
MPDSPVDVKTQSRLTPPTMPPPPTTQGAPRTSSFTPTTLTNGTSHSPTALNGAPSPPNGFSNGPSSSSSSSLANQQLPPACGARQLSALKRFLTTLQQFGNDISPEIGERVRTLVLGLVNSTLTIEEFHSKLQEATNFPLRPFVIPFLKANLPLLQRELLHCARLAKQNPAQYLAQHEQLLLDASTTSPVDSSELLLDVNENGKRRTPDRTKENGFDREPLHSEHPSKRPCTISPGQRYSPNNGLSYQPNGLPHPTPPPPQHYRLDDMAIAHHYRDSYRHPSHRDLRDRNRPMGLHGTRQEEMIDHRLTDREWAEEWKHLDHLLNCIMDMVEKTRRSLTVLRRCQEADREELNYWIRRYSDAEDLKKGGGSSSSHSRQQSPVNPDPVALDAHREFLHRPASGYVPEEIWKKAEEAVNEVKRQAMTELQKAVSEAERKAHDMITTERAKMERTVAEAKRQAAEDALAVINQQEDSSESCWNCGRKASETCSGCNTARYCGSFCQHKDWEKHHHICGQTLQAQQQGDTPAVSSSVTPNSGAGSPMDTPPAATPRSTTPGTPSTIETTPR [K88A]
MPDSPVDVKTQSRLTPPTMPPPPTTQGAPRTSSFTPTTLTNGTSHSPTALNGAPSPPNGFSNGPSSSSSSSLANQQLPPACGARQLSKLKRFLTTLQQFGNDISPEIGERVRTLVLGLVNSTLTIEEFHSKLQEATNFPLAPFVIPFLKANLPLLQRELLHCARLAKQNPAQYLAQHEQLLLDASTTSPVDSSELLLDVNENGKRRTPDRTKENGFDREPLHSEHPSKRPCTISPGQRYSPNNGLSYQPNGLPHPTPPPPQHYRLDDMAIAHHYRDSYRHPSHRDLRDRNRPMGLHGTRQEEMIDHRLTDREWAEEWKHLDHLLNCIMDMVEKTRRSLTVLRRCQEADREELNYWIRRYSDAEDLKKGGGSSSSHSRQQSPVNPDPVALDAHREFLHRPASGYVPEEIWKKAEEAVNEVKRQAMTELQKAVSEAERKAHDMITTERAKMERTVAEAKRQAAEDALAVINQQEDSSESCWNCGRKASETCSGCNTARYCGSFCQHKDWEKHHHICGQTLQAQQQGDTPAVSSSVTPNSGAGSPMDTPPAATPRSTTPGTPSTIETTPR [R141A]
MPDSPVDVKTQSRLTPPTMPPPPTTQGAPRTSSFTPTTLTNGTSHSPTALNGAPSPPNGFSNGPSSSSSSSLANQQLPPACGARQLSKLKRFLTTLQQFGNDISPEIGERVRTLVLGLVNSTLTIEEFHSKLQEATNFPLDPFVIPFLKANLPLLQRELLHCARLAKQNPAQYLAQHEQLLLDASTTSPVDSSELLLDVNENGKRRTPDRTKENGFDREPLHSEHPSKRPCTISPGQRYSPNNGLSYQPNGLPHPTPPPPQHYRLDDMAIAHHYRDSYRHPSHRDLRDRNRPMGLHGTRQEEMIDHRLTDREWAEEWKHLDHLLNCIMDMVEKTRRSLTVLRRCQEADREELNYWIRRYSDAEDLKKGGGSSSSHSRQQSPVNPDPVALDAHREFLHRPASGYVPEEIWKKAEEAVNEVKRQAMTELQKAVSEAERKAHDMITTERAKMERTVAEAKRQAAEDALAVINQQEDSSESCWNCGRKASETCSGCNTARYCGSFCQHKDWEKHHHICGQTLQAQQQGDTPAVSSSVTPNSGAGSPMDTPPAATPRSTTPGTPSTIETTPR [R141D]
